Co-IP mass spectrometry count data for 2 substances are collected here from US20240261333A1, “NOVEL TARGETS FOR ENHANCING ANTI-TUMOR IMMUNITY” (THE BROAD INSTITUTE, INC., priority 2021, published 2024).

Assay [1] addresses RPLP2 (UniProt P05387). Put plainly: co-IP with anti-FLAG, mass spectrometry; C-FLAG B3GNT2.
Assay [2] has as its target RPL11 (UniProt P62913). Described as above.
Assay [3] deals with STRAP (UniProt Q9Y3F4). The assay is described as above.
In assay [4] the target is SERPINB12 (UniProt Q96P63). Described as above.
Assay [5] has as its target RPL21 (UniProt P46778). The assay is described as above.
The target of assay [6] is HSP90AB1 (human) (UniProt P08238). Put plainly: IgG control IP from lysate of C-FLAG B3GNT2 cells, mass spectrometry.
Sequence of HSP90AB1 (human) (P08238 2-724 limits assumed): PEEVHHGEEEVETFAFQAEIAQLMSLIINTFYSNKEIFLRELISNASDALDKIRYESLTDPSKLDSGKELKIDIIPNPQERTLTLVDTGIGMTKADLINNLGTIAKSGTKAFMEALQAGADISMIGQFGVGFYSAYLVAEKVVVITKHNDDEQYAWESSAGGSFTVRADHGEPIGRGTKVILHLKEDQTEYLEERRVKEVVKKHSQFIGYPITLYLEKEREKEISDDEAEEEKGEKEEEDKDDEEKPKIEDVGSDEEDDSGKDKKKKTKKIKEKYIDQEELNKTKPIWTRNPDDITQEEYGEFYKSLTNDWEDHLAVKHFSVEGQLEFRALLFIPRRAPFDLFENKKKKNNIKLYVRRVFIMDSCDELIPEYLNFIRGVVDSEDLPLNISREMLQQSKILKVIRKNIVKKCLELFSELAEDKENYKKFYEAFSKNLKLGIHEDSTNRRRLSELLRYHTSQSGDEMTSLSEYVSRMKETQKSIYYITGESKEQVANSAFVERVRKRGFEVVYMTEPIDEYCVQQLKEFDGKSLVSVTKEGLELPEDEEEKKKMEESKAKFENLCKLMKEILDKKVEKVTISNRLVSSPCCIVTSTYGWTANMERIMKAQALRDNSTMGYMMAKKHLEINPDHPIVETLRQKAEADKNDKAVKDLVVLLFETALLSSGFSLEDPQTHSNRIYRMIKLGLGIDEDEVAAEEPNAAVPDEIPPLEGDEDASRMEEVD
In assay [7] the target is RCN1 (human) (UniProt Q15293). Described as above.
For assay [8], the target named is RPS6 (human) (UniProt P62753). The assay is described as above.
In assay [9] the target is ERP44 (human) (UniProt Q9BS26). Described as above.
Sequence of ERP44 (human) (Q9BS26 30-406 limits assumed): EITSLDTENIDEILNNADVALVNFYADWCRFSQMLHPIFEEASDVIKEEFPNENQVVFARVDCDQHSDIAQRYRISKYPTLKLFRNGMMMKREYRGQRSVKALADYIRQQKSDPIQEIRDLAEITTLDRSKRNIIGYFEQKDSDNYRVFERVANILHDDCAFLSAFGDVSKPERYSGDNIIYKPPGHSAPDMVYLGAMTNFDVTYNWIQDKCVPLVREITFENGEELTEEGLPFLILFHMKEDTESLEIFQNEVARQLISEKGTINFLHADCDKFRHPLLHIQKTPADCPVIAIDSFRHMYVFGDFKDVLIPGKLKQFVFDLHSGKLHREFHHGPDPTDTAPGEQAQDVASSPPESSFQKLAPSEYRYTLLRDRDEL
Assay [10] addresses PDIA4 (human) (UniProt P13667). The assay is described as above.
Assay [11] addresses H1FX (human) (UniProt Q92522). The description is as above.
The target of assay [12] is NTPCR (human) (UniProt Q9BSD7). Described as above.
Sequence of NTPCR (human) (Q9BSD7 2-190 limits assumed): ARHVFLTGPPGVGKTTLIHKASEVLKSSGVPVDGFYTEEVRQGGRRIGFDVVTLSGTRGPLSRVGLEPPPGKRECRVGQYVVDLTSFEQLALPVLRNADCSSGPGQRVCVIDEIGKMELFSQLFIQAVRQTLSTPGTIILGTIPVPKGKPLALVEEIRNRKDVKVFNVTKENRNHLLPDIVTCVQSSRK
The target of assay [13] is PSMB4 (human) (UniProt P28070). Described as above.
Assay [14] concerns the target SLC25A22 (human) (UniProt Q9H936). The description is as above.
The target of assay [15] is ABCD1 (human) (UniProt P33897). The description is as above.
Assay [16] addresses ZRANB2 (human) (UniProt O95218). Described as above.
The target in assay [17] is LDHA (human) (UniProt P00338). Described as above.
For assay [18], the target named is KPNB1 (human) (UniProt Q14974). Described as above.
Assay [19] addresses RRBP1 (human) (UniProt Q9P2E9). The description is as above.
Assay [20] concerns the target ACSL3 (human) (UniProt O95573). Described as above.
Assay [21] deals with TRAFD1 (human) (UniProt O14545). The assay is described as above.
Assay [22] concerns the target IFI16 (human) (UniProt Q16666). Described as above.
Assay [23] has as its target RPL15 (human) (UniProt P61313). The assay is described as above.
For assay [24], the target named is UBTF (human) (UniProt P17480). The assay is described as above.
Sequence of UBTF (human) (P17480 other isoform, or with tags, fused parts or gaps limits assumed): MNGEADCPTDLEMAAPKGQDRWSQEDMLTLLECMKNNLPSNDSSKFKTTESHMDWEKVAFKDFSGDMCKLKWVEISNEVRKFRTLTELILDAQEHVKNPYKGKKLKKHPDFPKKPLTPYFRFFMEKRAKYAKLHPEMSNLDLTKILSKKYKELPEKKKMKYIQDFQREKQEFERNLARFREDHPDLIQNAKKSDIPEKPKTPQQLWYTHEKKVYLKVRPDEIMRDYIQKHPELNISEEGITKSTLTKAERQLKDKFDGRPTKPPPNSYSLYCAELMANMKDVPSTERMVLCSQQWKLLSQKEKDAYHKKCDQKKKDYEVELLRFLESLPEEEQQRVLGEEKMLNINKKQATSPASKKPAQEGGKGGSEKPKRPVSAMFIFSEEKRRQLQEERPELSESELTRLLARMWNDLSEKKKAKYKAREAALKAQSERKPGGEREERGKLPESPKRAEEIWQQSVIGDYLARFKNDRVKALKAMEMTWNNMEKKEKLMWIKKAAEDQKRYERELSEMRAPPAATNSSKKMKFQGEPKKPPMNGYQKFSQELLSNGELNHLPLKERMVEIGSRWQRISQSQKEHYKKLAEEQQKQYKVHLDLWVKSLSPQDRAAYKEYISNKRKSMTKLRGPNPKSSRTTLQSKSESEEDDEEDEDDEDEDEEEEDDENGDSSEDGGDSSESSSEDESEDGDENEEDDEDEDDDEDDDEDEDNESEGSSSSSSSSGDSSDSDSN
Assay [25] addresses KTN1 (human) (UniProt Q86UP2). The assay is described as above.
Assay [26] deals with AIFM1 (human) (UniProt O95831). The description is as above.
Assay [27] addresses ATAD3A (human) (UniProt Q9NVI7). The assay is described as above.
Assay [28] concerns the target ERP29 (human) (UniProt P30040). The assay is described as above.
The target of assay [29] is SFXN3 (human) (UniProt Q9BWM7). The assay is described as above.
The target of assay [30] is STAU1 (human) (UniProt O95793). The description is as above.
Assay [31] concerns the target TECR (human) (UniProt Q9NZ01). Described as above.
Assay [32] deals with PGAM5 (human) (UniProt Q96HS1). The description is as above.
Assay [33] has as its target PSMC2 (human) (UniProt P35998). The description is as above.
Assay [34] addresses HDGFL2 (human) (UniProt Q7Z4V5). Described as above.
The target in assay [35] is IPO7 (human) (UniProt O95373). The assay is described as above.
Sequence of IPO7 (human) (O95373 whole entry): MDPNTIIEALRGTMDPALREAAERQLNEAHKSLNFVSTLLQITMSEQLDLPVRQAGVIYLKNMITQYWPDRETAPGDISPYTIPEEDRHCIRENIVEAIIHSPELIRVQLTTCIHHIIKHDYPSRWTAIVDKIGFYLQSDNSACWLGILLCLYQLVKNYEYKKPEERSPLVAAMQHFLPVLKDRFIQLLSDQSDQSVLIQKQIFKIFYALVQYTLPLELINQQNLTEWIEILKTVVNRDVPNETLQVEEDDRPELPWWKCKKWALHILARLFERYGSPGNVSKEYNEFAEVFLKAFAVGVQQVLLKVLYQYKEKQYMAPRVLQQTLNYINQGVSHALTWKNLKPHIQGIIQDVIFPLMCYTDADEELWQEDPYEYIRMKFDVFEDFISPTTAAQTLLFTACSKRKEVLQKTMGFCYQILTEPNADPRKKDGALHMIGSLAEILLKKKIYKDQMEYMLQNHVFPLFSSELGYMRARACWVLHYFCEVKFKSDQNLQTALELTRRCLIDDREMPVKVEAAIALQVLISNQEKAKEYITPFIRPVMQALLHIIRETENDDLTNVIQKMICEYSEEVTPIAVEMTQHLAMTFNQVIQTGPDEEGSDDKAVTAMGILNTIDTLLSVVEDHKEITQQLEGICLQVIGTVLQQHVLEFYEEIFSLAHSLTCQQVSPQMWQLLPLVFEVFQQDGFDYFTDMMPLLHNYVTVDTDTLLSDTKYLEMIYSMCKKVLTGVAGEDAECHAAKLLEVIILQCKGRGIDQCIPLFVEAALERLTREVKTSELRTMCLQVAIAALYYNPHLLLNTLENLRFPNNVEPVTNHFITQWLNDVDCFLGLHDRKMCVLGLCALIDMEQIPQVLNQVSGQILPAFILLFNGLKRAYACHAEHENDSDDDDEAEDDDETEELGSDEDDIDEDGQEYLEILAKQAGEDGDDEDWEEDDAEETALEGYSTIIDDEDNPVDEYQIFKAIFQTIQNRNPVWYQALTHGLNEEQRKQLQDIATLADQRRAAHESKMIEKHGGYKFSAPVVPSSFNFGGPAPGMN
Assay [36] deals with EEF2 (human) (UniProt P13639). Described as above.
For assay [37], the target named is PSMB6 (human) (UniProt P28072). Described as above.
Sequence of PSMB6 (human) (P28072 35-239 limits assumed): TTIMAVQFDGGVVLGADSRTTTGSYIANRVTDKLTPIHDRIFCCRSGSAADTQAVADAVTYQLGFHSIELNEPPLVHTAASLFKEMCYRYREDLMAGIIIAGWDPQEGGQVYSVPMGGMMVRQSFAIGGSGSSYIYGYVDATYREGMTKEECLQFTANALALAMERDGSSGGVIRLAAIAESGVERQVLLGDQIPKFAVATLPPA
In assay [38] the target is ELOC (human) (UniProt Q15369). Described as above.
Assay [39] has as its target FBXO6 (human) (UniProt Q9NRD1). The description is as above.
Assay [40] has as its target LARP4 (human) (UniProt Q71RC2). Described as above.

Sequence of KTN1 (human) (Q86UP2 whole entry): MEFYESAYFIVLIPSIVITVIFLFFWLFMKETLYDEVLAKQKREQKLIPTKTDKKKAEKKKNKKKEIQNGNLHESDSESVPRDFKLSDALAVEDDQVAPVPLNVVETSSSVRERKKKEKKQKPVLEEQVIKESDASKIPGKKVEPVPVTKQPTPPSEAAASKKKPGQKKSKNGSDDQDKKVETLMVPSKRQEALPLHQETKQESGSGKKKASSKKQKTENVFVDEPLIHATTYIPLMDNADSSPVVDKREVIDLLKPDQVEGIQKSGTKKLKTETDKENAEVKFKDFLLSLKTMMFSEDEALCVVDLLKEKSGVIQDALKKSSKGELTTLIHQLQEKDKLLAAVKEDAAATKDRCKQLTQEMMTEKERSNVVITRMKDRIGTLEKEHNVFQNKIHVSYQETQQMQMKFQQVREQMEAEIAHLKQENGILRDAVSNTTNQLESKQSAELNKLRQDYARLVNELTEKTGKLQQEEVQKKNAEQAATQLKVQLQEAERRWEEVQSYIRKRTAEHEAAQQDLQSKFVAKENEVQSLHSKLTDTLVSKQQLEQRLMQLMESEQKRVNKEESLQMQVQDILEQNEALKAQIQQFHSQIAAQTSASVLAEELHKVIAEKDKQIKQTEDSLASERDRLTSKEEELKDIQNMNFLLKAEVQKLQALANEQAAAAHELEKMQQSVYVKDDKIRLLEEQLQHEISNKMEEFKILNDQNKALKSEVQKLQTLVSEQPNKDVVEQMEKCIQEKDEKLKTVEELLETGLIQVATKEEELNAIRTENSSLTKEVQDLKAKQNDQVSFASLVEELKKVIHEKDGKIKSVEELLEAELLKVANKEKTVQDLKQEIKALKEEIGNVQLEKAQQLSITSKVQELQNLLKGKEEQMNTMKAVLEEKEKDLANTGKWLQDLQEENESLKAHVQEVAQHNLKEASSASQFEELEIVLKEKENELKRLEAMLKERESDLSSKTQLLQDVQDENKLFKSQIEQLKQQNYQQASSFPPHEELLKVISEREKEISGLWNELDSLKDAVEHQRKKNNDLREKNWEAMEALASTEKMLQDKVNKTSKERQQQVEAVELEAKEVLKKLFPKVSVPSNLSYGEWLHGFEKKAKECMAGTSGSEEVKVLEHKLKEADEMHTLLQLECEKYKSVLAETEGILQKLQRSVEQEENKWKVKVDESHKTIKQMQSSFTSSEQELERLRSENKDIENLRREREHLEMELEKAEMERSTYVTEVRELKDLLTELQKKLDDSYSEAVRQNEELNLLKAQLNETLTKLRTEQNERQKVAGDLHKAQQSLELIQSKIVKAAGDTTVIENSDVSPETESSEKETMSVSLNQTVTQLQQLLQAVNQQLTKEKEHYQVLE
Sequence of PSMC2 (human) (P35998 2-433 limits assumed): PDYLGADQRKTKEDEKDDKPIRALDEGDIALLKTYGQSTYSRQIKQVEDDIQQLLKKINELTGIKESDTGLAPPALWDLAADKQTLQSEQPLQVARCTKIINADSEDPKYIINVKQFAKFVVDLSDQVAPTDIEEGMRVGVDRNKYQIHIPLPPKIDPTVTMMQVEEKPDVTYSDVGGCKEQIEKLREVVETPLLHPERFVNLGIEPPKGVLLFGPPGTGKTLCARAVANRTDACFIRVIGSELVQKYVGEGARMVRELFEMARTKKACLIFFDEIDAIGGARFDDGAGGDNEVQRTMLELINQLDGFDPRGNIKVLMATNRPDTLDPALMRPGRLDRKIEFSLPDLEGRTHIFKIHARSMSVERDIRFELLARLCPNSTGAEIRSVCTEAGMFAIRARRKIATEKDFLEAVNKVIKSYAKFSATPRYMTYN

As to “C-terminal FLAG tagged B3GNT2 (from UniProt Q9NY97 1-397) (enzyme)”, the co-IP mass spectrometry count in [1] was determined as 13; in assay [2] it was 7; in assay [3], 3; in assay [4], 2; in assay [5], 11.
As for “IgG control (Millipore Sigma 12-371) (antibody)”, the co-IP mass spectrometry count was found to be 2 in [6]; 0 in assay [7]; 2 in assay [8]; 0 in assay [9]; 0 in assay [10]; 0 in [11]. For the same substance, the co-IP mass spectrometry count in [12], in [13], in [14], in [15], in assay [16] and in assay [17] was 0 each time. Moreover, the co-IP mass spectrometry count turned out to be 0 in assay [18]; 2 in [19]; 0 in assay [20]; 0 in assay [21]; 0 in assay [22]; 2 in assay [23]. For the same substance, the co-IP mass spectrometry count in [24], in assay [25], in [26], in assay [27], in assay [28] and in assay [29] was 0 in each case. The co-IP mass spectrometry count in assay [30], in assay [31], in [32], in [33], in assay [34] and in assay [35] was 0 each time. The co-IP mass spectrometry count in assay [36], in assay [37], in assay [38], in assay [39] and in assay [40] was 0 each time.
